Source: paper PMC9964314

Key:
[1] = target: FITC tagged AAV Po1 capsid monopartite NLS peptide (residues 143-165) (porcine adeno-associated virus, strain Po1); assay: fluorescence polarisation
[2] = target: FITC tagged AAV Po1 capsid bipartite NLS peptide (residues 119-158) (porcine adeno-associated virus, strain Po1); assay: fluorescence polarisation

Substance: Human importin α1 lacking the IBB domain (hImpα1DIBB) (domain or fragment)
- Kd [1]: 556 nM
- Kd [2]: 0.382 nM

Substance: Human importin α3 lacking the IBB domain (hImpα3DIBB) (domain or fragment)
- Kd [1]: 3480 nM
- Kd [2]: 0.0455 nM

Substance: Human importin α5 lacking the IBB domain (hImp5DIBB) (domain or fragment)
- Kd [1]: 144 nM
- Kd [2]: 0.14 nM

Substance: Human importin α7 lacking the IBB domain (hImpα7DIBB) (domain or fragment)
- Kd [1]: 294 nM
- Kd [2]: 0.29 nM
